B1: N^ε24-([2-[2-[2-[[2-[2-[2-[[(4S)-5-hydroxy-4-[(18-hydroxy-18-oxooctadecanoyl)amino]-5-oxopentanoyl]amino]ethoxy]ethoxy]acetyl]amino]ethoxy]ethoxy]acetyl]) … (peptide)
peptide: H[Aib]QGTFTSDYSKYLDERRAQDFVK([AEEA-AEEA-γGlu-C18 diacid])WLLNT-NH2
modifications: N-terminus assumed
SMILES: CC(C)C[C@H](NC(=O)[C@H](Cc1ccc(O)cc1)NC(=O)[C@H](CCCCN)NC(=O)[C@H](CO)NC(=O)[C@H](Cc1ccc(O)cc1)NC(=O)[C@H](CC(=O)O)NC(=O)[C@H](CO)NC(=O)[C@@H](NC(=O)[C@H](Cc1ccccc1)NC(=O)[C@@H](NC(=O)CNC(=O)[C@H](CCC(N)=O)NC(=O)C(C)(C)NC(=O)[C@@H](N)Cc1c[nH]cn1)[C@@H](C)O)[C@@H](C)O)C(=O)N[C@@H](CC(=O)O)C(=O)N[C@@H](CCC(=O)O)C(=O)N[C@@H](CCCNC(=N)N)C(=O)N[C@@H](CCCNC(=N)N)C(=O)N[C@@H](C)C(=O)N[C@@H](CCC(N)=O)C(=O)N[C@@H](CC(=O)O)C(=O)N[C@@H](Cc1ccccc1)C(=O)N[C@H](C(=O)N[C@@H](CCCCNC(=O)COCCOCCNC(=O)COCCOCCNC(=O)CC[C@H](NC(=O)CCCCCCCCCCCCCCCCC(=O)O)C(=O)O)C(=O)N[C@@H](Cc1c[nH]c2ccccc12)C(=O)N[C@@H](CC(C)C)C(=O)N[C@@H](CC(C)C)C(=O)N[C@@H](CC(N)=O)C(=O)N[C@H](C(N)=O)[C@@H](C)O)C(C)C
B2: N^α([Glu^16,Gln^17,Ala^18,Arg^20]Glucagonyl) … (peptide)
peptide: HSQGTFTSDYSKYLDEQAARDFVQWLMNTK([AEEA-AEEA-γGlu-C18 diacid])-NH2
modifications: N-terminus assumed
SMILES: CSCC[C@H](NC(=O)[C@H](CC(C)C)NC(=O)[C@H](Cc1c[nH]c2ccccc12)NC(=O)[C@H](CCC(N)=O)NC(=O)[C@@H](NC(=O)[C@H](Cc1ccccc1)NC(=O)[C@H](CC(=O)O)NC(=O)[C@H](CCCNC(=N)N)NC(=O)[C@H](C)NC(=O)[C@H](C)NC(=O)[C@H](CCC(N)=O)NC(=O)[C@H](CCC(=O)O)NC(=O)[C@H](CC(=O)O)NC(=O)[C@H](CC(C)C)NC(=O)[C@H](Cc1ccc(O)cc1)NC(=O)[C@H](CCCCN)NC(=O)[C@H](CO)NC(=O)[C@H](Cc1ccc(O)cc1)NC(=O)[C@H](CC(=O)O)NC(=O)[C@H](CO)NC(=O)[C@@H](NC(=O)[C@H](Cc1ccccc1)NC(=O)[C@@H](NC(=O)CNC(=O)[C@H](CCC(N)=O)NC(=O)[C@H](CO)NC(=O)[C@@H](N)Cc1c[nH]cn1)[C@@H](C)O)[C@@H](C)O)C(C)C)C(=O)N[C@@H](CC(N)=O)C(=O)N[C@H](C(=O)N[C@@H](CCCCNC(=O)COCCOCCNC(=O)COCCOCCNC(=O)CC[C@H](NC(=O)CCCCCCCCCCCCCCCCC(=O)O)C(=O)O)C(N)=O)[C@@H](C)O
B3: N^ε29-([2-[2-[2-[[(4S)-5-hydroxy-4-[(18-hydroxy-18-oxooctadecanoyl)amino]5-oxopentanoyl]amino]ethoxy]ethoxy]acetyl]amino]ethoxy]ethoxy]acetyl]])[Leu^27,Lys^29]G … (peptide)
peptide: HSQGTFTSDYSKYLDSRRAQDFVQWLLNK([AEEA-AEEA-γGlu-C18 diacid])
modifications: not fully specified; printed as N^ε29-([2-[2-[2-[[(4S)-5-hydroxy-4-[(18-hydroxy-18-oxooctadecanoyl)amino]5-oxopentanoyl]amino]ethoxy]ethoxy]acetyl]amino]ethoxy]ethoxy]acetyl]])[Leu^27,Lys^29]Glucagon
B4: N^ε24-([2-[2-[2-[[2-[2-[2-[[(4S)-5-hydroxy-4-[(18-hydroxy-18-oxooctadecanoyl)amino]-5-oxopentanoyl]amino]ethoxy]ethoxy]acetyl]amino]ethoxy]ethoxy]acetyl]) … (peptide)
peptide: H[dS]QGTFTSDYSKYLAEQRARDFVK([AEEA-AEEA-γGlu-C18 diacid])WLLNT-NH2
modifications: N-terminus assumed
SMILES: CC(C)C[C@H](NC(=O)[C@H](Cc1ccc(O)cc1)NC(=O)[C@H](CCCCN)NC(=O)[C@H](CO)NC(=O)[C@H](Cc1ccc(O)cc1)NC(=O)[C@H](CC(=O)O)NC(=O)[C@H](CO)NC(=O)[C@@H](NC(=O)[C@H](Cc1ccccc1)NC(=O)[C@@H](NC(=O)CNC(=O)[C@H](CCC(N)=O)NC(=O)[C@@H](CO)NC(=O)[C@@H](N)Cc1c[nH]cn1)[C@@H](C)O)[C@@H](C)O)C(=O)N[C@@H](C)C(=O)N[C@@H](CCC(=O)O)C(=O)N[C@@H](CCC(N)=O)C(=O)N[C@@H](CCCNC(=N)N)C(=O)N[C@@H](C)C(=O)N[C@@H](CCCNC(=N)N)C(=O)N[C@@H](CC(=O)O)C(=O)N[C@@H](Cc1ccccc1)C(=O)N[C@H](C(=O)N[C@@H](CCCCNC(=O)COCCOCCNC(=O)COCCOCCNC(=O)CC[C@H](NC(=O)CCCCCCCCCCCCCCCCC(=O)O)C(=O)O)C(=O)N[C@@H](Cc1c[nH]c2ccccc12)C(=O)N[C@@H](CC(C)C)C(=O)N[C@@H](CC(C)C)C(=O)N[C@@H](CC(N)=O)C(=O)N[C@H](C(N)=O)[C@@H](C)O)C(C)C
B5: N^ε24-([2-[2-[2-[[2-[2-[2-[[(4S)-5-hydroxy-4-[(18-hydroxy-18-oxooctadecanoyl)amino]-5-oxopentanoyl]amino]ethoxy]ethoxy]acetyl]amino]ethoxy]ethoxy]acetyl])[Glu^2 … (peptide)
peptide: HSQGTFTSDYSKYLDSRRAQEFVK([AEEA-AEEA-γGlu-C18 diacid])RLLNT-NH2
modifications: N-terminus assumed
SMILES: CC(C)C[C@H](NC(=O)[C@H](Cc1ccc(O)cc1)NC(=O)[C@H](CCCCN)NC(=O)[C@H](CO)NC(=O)[C@H](Cc1ccc(O)cc1)NC(=O)[C@H](CC(=O)O)NC(=O)[C@H](CO)NC(=O)[C@@H](NC(=O)[C@H](Cc1ccccc1)NC(=O)[C@@H](NC(=O)CNC(=O)[C@H](CCC(N)=O)NC(=O)[C@H](CO)NC(=O)[C@@H](N)Cc1c[nH]cn1)[C@@H](C)O)[C@@H](C)O)C(=O)N[C@@H](CC(=O)O)C(=O)N[C@@H](CO)C(=O)N[C@@H](CCCNC(=N)N)C(=O)N[C@@H](CCCNC(=N)N)C(=O)N[C@@H](C)C(=O)N[C@@H](CCC(N)=O)C(=O)N[C@@H](CCC(=O)O)C(=O)N[C@@H](Cc1ccccc1)C(=O)N[C@H](C(=O)N[C@@H](CCCCNC(=O)COCCOCCNC(=O)COCCOCCNC(=O)CC[C@H](NC(=O)CCCCCCCCCCCCCCCCC(=O)O)C(=O)O)C(=O)N[C@@H](CCCNC(=N)N)C(=O)N[C@@H](CC(C)C)C(=O)N[C@@H](CC(C)C)C(=O)N[C@@H](CC(N)=O)C(=O)N[C@H](C(N)=O)[C@@H](C)O)C(C)C
B6: N^α([Leu^27]Glucagonyl) … (peptide)
peptide: HSQGTFTSDYSKYLDSRRAQDFVQWLLNTK
modifications: C-terminal Lys (position 30): N-epsilon acylated with the substituent printed in the name
B7: N^α([Glu^16,Gln^17,Arg^20]Glucagonyl) … (peptide)
peptide: HSQGTFTSDYSKYLDEQRARDFVQWLMNTK([AEEA-AEEA-γGlu-C18 diacid])-NH2
modifications: N-terminus assumed
SMILES: CSCC[C@H](NC(=O)[C@H](CC(C)C)NC(=O)[C@H](Cc1c[nH]c2ccccc12)NC(=O)[C@H](CCC(N)=O)NC(=O)[C@@H](NC(=O)[C@H](Cc1ccccc1)NC(=O)[C@H](CC(=O)O)NC(=O)[C@H](CCCNC(=N)N)NC(=O)[C@H](C)NC(=O)[C@H](CCCNC(=N)N)NC(=O)[C@H](CCC(N)=O)NC(=O)[C@H](CCC(=O)O)NC(=O)[C@H](CC(=O)O)NC(=O)[C@H](CC(C)C)NC(=O)[C@H](Cc1ccc(O)cc1)NC(=O)[C@H](CCCCN)NC(=O)[C@H](CO)NC(=O)[C@H](Cc1ccc(O)cc1)NC(=O)[C@H](CC(=O)O)NC(=O)[C@H](CO)NC(=O)[C@@H](NC(=O)[C@H](Cc1ccccc1)NC(=O)[C@@H](NC(=O)CNC(=O)[C@H](CCC(N)=O)NC(=O)[C@H](CO)NC(=O)[C@@H](N)Cc1c[nH]cn1)[C@@H](C)O)[C@@H](C)O)C(C)C)C(=O)N[C@@H](CC(N)=O)C(=O)N[C@H](C(=O)N[C@@H](CCCCNC(=O)COCCOCCNC(=O)COCCOCCNC(=O)CC[C@H](NC(=O)CCCCCCCCCCCCCCCCC(=O)O)C(=O)O)C(N)=O)[C@@H](C)O

Numbered stars: 1 amine (or outer) side, 2 acyl side, 3 side chain; on linkers, the order of the positions; unused ones are H or OH. Square brackets hold non-standard residues; d marks the D form. Side chains are listed from the residue outwards. Ends that are not written are not given here. * marks the point of attachment. C18 diacid = O=C(O)CCCCCCCCCCCCCCCCC(=O)*; γGlu = O=C(O)[C@H](CCC(=O)[*:2])N[*:1]; AEEA = NCCOCCOCC(=O)O; Aib = CC(C)(N)C(=O)O

The target of the assay is glucagon receptor (UniProt P47871 26-477, limits assumed). The assay can be described thus: cell-based or functional assay.
Sequence of glucagon receptor (P47871 26-477 limits assumed): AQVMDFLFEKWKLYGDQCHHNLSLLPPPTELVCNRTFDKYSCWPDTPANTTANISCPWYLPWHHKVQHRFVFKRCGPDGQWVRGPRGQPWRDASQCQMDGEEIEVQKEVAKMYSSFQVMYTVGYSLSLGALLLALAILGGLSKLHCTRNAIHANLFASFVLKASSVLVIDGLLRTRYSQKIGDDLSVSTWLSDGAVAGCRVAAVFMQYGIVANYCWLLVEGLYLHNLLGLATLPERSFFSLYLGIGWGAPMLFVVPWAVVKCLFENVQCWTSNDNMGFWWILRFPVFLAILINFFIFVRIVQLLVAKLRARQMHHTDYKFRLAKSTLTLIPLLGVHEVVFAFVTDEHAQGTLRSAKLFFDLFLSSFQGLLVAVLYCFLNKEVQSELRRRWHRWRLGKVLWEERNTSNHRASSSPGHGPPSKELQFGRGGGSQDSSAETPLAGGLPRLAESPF
Regarding B1, the “Assay (I) Glucagon [EC50]” value worked out at 0.135 nM.
Regarding B2, the “Assay (I) Glucagon [EC50]” value stood at 0.406 nM.
Take HSQGTFTSDYSKYLDSK([AEEA-AEEA-γGlu-C18 diacid])RAQDFVQWLLNT: the “Assay (I) Glucagon [EC50]” value was determined as 0.094 nM.
For the molecule B3, the “Assay (I) Glucagon [EC50]” value worked out at 0.046 nM.
Regarding B4, the “Assay (I) Glucagon [EC50]” value came out at 0.137 nM.
Consider B5, for which the “Assay (I) Glucagon [EC50]” value was 0.043 nM.
To HSQGTFTSDYSRYLDSRRAQDFVK([AEEA-AEEA-γGlu-C18 diacid])WLLNT belongs 0.109 nM; to HSQGTFTSDYSKYLDSRRAQDFVK([AEEA-AEEA-γGlu-C18 diacid])WLLST, 0.02 nM.
For the molecule HSQGTFTSDYSKYLDK([AEEA-AEEA-γGlu-C18 diacid])RRAQDFVQWLLNT, the “Assay (I) Glucagon [EC50]” value turned out to be 0.003 nM.
For the molecule H[dS]QGTFTSDYSKYLDERRAQDFVK([AEEA-AEEA-γGlu-C18 diacid])WLLNT, the “Assay (I) Glucagon [EC50]” value turned out to be 0.149 nM.
On to H[dS]QGTFTSDYSKYLDSRRAKDFVQWLMNTK-NH2 (not fully specified), for which the “Assay (I) Glucagon [EC50]” value was found to be 0.54 nM.
For the molecule HSQGTFTSDYSKYLDSRRAQDFVK([AEEA-AEEA-γGlu-C18 diacid])WLLTT, the “Assay (I) Glucagon [EC50]” value came out at 0.024 nM.
As for HSQGTFTSDYSKYLDSRK([AEEA-AEEA-γGlu-C18 diacid])AQDFVQWLLNT, the “Assay (I) Glucagon [EC50]” value was 0.206 nM.
Consider B6, for which the “Assay (I) Glucagon [EC50]” value was 0.019 nM.
To B7 belongs 0.192 nM.
Take HSQGTFTSDYSKYLDSRRAQEFVK([AEEA-AEEA-γGlu-C18 diacid])WLLNT: the “Assay (I) Glucagon [EC50]” value stood at 0.021 nM.
In the case of HSQGTFTSDYSKYLDTRRAQDFVK([AEEA-AEEA-γGlu-C18 diacid])WLLST, the “Assay (I) Glucagon [EC50]” value was found to be 0.016 nM.
